Results on six molecules are retold here after patent US20240117034A1 (SHANGHAI JEMINCARE PHARMACEUTICAL, published 2024).

Assay [1] concerns the target human GARP/human latent TGF-β1 complex on recombinant cells (293F-hGARP/hTGF-β1, CHOK1-hGARP/hTGF-β1) (human) (UniProt Q14392). Description: flow cytometry on 293F-hGARP/hTGF-β1 clone 2D3.
For assay [2] the target is unchanged. In words: flow cytometry on 293F-hGARP/hTGF-β1 clone 2F4.
Assay [3] addresses T1, human GARP/human latent TGF-β1 complex on recombinant cells (293F-hGARP/hTGF-β1, CHOK1-hGARP/hTGF-β1) (human, UniProt Q14392 20-662; P01137 30-390).
T1 construct: whole, on cells; Both full-length proteins were co-expressed on 293F or CHOK1 cells; The host cell of each assay is named in the assay field; also called 293F-hGARP/hTGF-β1 complex; clones 2F4 and 2D3
In words: flow cytometry competition on 293F-hGARP/hTGF-β1 cells; the competitor is Alexa 488-labelled MHG8 at a fixed concentration; falling curve.

Assay [4] deals with T1, human GARP/human latent TGF-β1 complex …. Description: flow cytometry titration on 293F-hGARP/hTGF-β1 cells, Alexa 488 anti-mouse IgG secondary. The procedure: The cells were counted and centrifuged at 300 g for 5 min, the supernatant was discarded, the cell pellet was resuspended and washed with 1×PBS, then centrifuged at 300 g for 5 min, the supernatant was discarded, and then the cell pellet was resuspended with FACS buffer containing 2% FBS to adjust to a density of 1e6 cells/mL. The cells were plated at a density of 1e5 cells/well for a constant volume of 100 μL/well at 4° C. for 0.5 h, and centrifuged at 300 g for 5 min, and the supernatant was discarded. The antibody to be tested was prepared in FACS buffer containing 2% FBS with a starting concentration of 15 µg/mL, followed by serial dilution with a dilution factor of 1:5 in a total of 7 gradients, and then was added for a constant volume of 100 μL/well, with 0 μg/mL as a control, the dilution was pipetted and mixed thoroughly at 4° C. for 1 h, and centrifuged at 300 g for 5 min, and the supernatant was discarded. 1×PBS was added for a constant volume of 200 μL/well to resuspend and mix the cell pellet thoroughly, followed by centrifugation at 300 g for 5 min, the supernatant was discarded, and the steps were repeated twice. […] The cell pellet was resuspended in FACS buffer containing 2% FBS to read on a FACS machine. […]

Assay [5] deals with T2, hGARP/hTGF-β1 complex (Kactus Biosystems, Cat. No.: GAR-HM4TG) (human, UniProt Q14392 20-627; P01137 30-390, limits assumed).
T2 construct: Bought soluble recombinant complex; also called antigen (hGARP/hTGF-β1 complex)
T2 sequence (Q14392 20-627 limits assumed, chain 1 of 2): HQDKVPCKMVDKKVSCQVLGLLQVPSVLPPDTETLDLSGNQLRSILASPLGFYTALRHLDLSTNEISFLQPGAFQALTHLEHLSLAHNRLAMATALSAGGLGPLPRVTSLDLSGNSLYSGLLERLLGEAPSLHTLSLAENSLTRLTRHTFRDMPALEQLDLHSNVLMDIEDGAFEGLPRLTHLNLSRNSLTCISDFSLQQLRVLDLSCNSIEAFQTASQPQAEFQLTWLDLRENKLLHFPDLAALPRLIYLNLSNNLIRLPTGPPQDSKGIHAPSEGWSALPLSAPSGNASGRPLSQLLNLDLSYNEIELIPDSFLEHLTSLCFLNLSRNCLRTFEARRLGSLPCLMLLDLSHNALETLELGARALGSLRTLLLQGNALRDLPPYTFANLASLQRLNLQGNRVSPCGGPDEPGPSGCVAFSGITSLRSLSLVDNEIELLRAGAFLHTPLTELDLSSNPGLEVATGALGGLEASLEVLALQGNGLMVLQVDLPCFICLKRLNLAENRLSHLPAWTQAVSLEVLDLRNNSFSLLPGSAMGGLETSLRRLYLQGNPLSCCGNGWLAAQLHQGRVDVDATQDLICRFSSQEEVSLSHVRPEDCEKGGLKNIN
T2 sequence (P01137 30-390 limits assumed, chain 2 of 2): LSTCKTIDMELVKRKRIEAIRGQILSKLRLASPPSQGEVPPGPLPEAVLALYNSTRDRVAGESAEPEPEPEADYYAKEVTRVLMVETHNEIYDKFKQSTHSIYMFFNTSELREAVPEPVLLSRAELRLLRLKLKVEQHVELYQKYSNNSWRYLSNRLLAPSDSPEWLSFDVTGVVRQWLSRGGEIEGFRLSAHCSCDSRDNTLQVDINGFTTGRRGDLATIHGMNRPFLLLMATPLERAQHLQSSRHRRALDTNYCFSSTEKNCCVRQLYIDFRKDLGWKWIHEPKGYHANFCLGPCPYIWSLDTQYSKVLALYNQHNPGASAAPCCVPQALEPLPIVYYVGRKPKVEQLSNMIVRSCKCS
In words: Octet RED96e (BLI), antibody captured on AHC sensor, complex in solution from 100 nM, 1:1 model.

T1 sequence (Q14392 20-662, chain 1 of 2): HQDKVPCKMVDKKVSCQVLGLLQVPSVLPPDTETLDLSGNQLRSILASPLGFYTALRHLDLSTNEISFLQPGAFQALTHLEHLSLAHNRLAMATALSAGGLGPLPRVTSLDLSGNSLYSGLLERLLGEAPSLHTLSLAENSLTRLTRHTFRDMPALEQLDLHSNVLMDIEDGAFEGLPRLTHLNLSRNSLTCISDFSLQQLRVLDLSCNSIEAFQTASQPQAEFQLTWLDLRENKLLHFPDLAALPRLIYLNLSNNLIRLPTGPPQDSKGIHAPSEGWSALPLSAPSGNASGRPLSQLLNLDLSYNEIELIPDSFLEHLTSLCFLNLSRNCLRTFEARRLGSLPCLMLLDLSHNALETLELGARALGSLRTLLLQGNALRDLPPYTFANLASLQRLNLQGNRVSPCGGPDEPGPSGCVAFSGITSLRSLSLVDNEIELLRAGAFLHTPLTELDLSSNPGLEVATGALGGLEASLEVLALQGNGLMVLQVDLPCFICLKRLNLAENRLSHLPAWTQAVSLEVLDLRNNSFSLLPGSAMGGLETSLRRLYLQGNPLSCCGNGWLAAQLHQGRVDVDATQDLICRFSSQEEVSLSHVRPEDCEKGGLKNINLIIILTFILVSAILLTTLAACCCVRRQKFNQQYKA
T1 sequence (P01137 30-390, chain 2 of 2): as the sequence (P01137 30-390 limits assumed, chain 2 of 2) above
Sequence of human GARP/human latent TGF-β1 complex on recombinant cells (293F-hGARP/hTGF-β1, CHOK1-hGARP/hTGF-β1) (human) (Q14392 20-662, chain 1 of 2): as the sequence (Q14392 20-662, chain 1 of 2) above
Sequence of human GARP/human latent TGF-β1 complex on recombinant cells (293F-hGARP/hTGF-β1, CHOK1-hGARP/hTGF-β1) (human) (P01137 30-390, chain 2 of 2, further chain): as the sequence (P01137 30-390 limits assumed, chain 2 of 2) above

Take “anti-human GARP antibody-FITC (Enzo life science, ALX-804-867FI-0100)”: the results for the Mean maximum fluorescence intensity (MFI) in assay [1] and in assay [2] were 6960 MFI and 8370 MFI, respectively.
Isotype control-FITC (antibody): the values for the Mean maximum fluorescence intensity (MFI) in assay [1] and in assay [2] were 103 MFI and 101 MFI, respectively.
For “anti-human TGF-β1 antibody, Anti-LAP (TGF-β1) Antibody-APC (R&D Systems, FAB2463A)”, in that order: 142000 MFI and 150000 MFI.
For Isotype control-APC (antibody), in that order: 103 MFI and 90 MFI.

B1: murine anti-human GARP monoclonal antibody 8H2D7B3 (antibody, V domains shown)
VH: QVQLQQSGAELVRPGSSVKLSCKASGYTLSNYWMYWVKQRPIQGLEWIGSIAPSDSETHYNQKFKDRATVTVDKSSRIVYMQLSSLTSEDSAVYFCARGGFGYGSSHWYFDVWGTGTTVTVSS
VL: DIQMTQSSAYLSVSLGGRVTITCKASDHINKWLAWYQQKPGNAPRLLISGATSLETGIPSRFSGSGSGKDYTLSITGLQTEDVATYYCQQYWTTPYTFGGGTKLEIK
notes: Antibody purified from the hybridoma; It was detected with anti-mouse IgG, and mouse IgG1 served as isotype control; also called murine antibody 8H2D7B3
For the molecule B1, the EC50 was determined as 1.61 µg/mL in assay [3] and 0.108 µg/mL in assay [4].

B2: MHG8 (anti-human GARP antibody) (antibody, V domains shown)
VH: QVQLKESGPGLVAPSQSLSITCTVSGFSLTGYGINWVRQPPGKGLEWLGMIWSDGSTDYNSVLTSRLRISKDNSNSQVFLKMNSLQVDDTARYYCARDRNYYDYDGAMDYWGQGTSVTVSS
VL: DIQVTQSSSYLSVSLGDRVTITCKASDHIKNWLAWYQQKPGIAPRLLVSGATSLEAGVPSRFSGSGSGKNFTLSITSLQTEDVATYYCQQYWSTPWTFGGGTTLEIR
As for B2, the EC50 in assay [3] is 2.74 µg/mL. In addition, in assay [4], the 50% effective concentration (EC50) stood at 0.12 µg/mL. Besides, in assay [5], the Kd was found to be 0.205 nM, the off-rate (koff) is 2.85e-05 s⁻¹ and the kon stood at 139000 M⁻¹ s⁻¹.
